According to patent EP2468863A1:

Molecular target: CEACAM1 expressed on transfected cells (CHO-CEACAM1, HeLa CC1, HeLa-CC1H) (human) (UniProt P13688)
Assay: cell-based or functional assay

Chain of UniProt P13688 (P13688 35-526): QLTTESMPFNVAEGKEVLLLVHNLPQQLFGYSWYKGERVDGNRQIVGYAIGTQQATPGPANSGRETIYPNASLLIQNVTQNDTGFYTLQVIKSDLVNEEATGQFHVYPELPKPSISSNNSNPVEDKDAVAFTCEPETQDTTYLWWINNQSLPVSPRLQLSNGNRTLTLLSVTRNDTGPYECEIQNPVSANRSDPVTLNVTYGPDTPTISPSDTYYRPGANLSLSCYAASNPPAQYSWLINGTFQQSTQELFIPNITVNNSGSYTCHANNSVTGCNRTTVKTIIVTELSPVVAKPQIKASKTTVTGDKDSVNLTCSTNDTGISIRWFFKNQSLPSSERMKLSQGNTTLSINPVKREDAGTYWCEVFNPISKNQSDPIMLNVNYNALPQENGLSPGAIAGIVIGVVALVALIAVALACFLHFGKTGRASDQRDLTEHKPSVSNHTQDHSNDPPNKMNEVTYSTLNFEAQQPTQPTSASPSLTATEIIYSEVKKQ

recombinant UspA1 fragment 4-7 (peptide)
inhibition of binding of H. influenzae to CHO-CEACAM1 transfectants: 10 µg per ml | inhibition of binding of M. catarrhalis strain MX1 to CHO-CEACAM1 transfectants: 1 µg/mL
